Measured values: patent publication EP4785956A2 (CHUGAI SEIYAKU KABUSHIKI KAISHA, dated 2026)
Positions count from the first letter of the chain named.

T1: recombinant cynomolgus monkey C5 (cynomolgus monkey, UniProt P01031 19-1676 (human entry), limits assumed)
T1 construct: also called cynoC5
T1 chain: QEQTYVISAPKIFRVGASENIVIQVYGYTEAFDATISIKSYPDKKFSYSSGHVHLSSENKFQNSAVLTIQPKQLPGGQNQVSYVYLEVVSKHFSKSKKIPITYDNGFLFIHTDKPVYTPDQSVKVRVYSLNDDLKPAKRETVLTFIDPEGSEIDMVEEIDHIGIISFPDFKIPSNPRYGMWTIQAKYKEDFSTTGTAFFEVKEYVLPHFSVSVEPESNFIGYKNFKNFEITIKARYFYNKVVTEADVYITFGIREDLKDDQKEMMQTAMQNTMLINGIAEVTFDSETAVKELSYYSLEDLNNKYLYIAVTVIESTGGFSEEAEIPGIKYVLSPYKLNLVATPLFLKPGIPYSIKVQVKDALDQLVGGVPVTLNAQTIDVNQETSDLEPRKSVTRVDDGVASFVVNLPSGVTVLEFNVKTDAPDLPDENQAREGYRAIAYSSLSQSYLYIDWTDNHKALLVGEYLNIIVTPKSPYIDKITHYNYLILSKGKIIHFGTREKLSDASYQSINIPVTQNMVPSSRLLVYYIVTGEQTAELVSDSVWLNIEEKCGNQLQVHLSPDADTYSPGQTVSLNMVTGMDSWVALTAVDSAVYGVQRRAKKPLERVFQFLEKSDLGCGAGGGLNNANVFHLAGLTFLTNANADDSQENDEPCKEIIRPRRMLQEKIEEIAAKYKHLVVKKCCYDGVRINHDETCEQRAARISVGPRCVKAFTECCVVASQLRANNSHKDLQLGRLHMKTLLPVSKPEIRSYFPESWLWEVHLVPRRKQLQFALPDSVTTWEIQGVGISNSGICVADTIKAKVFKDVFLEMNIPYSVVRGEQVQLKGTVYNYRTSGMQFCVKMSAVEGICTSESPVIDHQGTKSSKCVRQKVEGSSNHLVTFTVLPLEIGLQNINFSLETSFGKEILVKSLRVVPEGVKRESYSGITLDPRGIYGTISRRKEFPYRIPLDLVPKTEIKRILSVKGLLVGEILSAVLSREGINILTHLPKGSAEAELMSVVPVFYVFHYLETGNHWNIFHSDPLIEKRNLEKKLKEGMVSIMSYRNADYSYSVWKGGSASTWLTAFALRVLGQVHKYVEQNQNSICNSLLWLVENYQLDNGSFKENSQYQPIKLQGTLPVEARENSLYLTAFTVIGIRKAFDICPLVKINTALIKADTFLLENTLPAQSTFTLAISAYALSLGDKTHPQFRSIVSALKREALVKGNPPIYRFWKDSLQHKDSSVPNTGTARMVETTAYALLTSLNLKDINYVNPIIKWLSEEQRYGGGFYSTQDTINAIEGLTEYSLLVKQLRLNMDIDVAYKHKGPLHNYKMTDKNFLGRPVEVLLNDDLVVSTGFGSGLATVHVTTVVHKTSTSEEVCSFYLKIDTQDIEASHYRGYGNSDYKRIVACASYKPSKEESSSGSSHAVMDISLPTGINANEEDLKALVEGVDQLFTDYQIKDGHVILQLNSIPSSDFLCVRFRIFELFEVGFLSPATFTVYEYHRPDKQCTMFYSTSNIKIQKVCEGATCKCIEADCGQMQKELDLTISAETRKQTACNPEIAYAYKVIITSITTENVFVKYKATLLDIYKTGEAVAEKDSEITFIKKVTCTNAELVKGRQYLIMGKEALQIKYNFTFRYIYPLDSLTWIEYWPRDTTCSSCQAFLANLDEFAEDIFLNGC

B1: 305LO16-SG422 (antibody, V domains shown)
VH: QVQLVESGGGLVQPGRSLRLSCAASGFTVHSSYYMAWVRQAPGKGLEWVGAIFTGSGAEYKAEWVKGRFTISRDNSKNTLYLQMNSLRAEDTAVYYCASDAGYDYPTHAMHYWGRGTLVTVSS
VL: DIQMTQSPSSLSASVGDRVTITCRASQGISSSLAWYQQKPGKAPKLLIYGASETESGVPSRFSGSGSGTDFTLTISSLQPEDFATYYCQNTKVGSSYGNTFGGGTKVEIKR
B2: CFA0501 (antibody, V domains shown)
VH: QSVEESGGRLVTPGTPLTLTCTASGFSLSSYYMNWVRQAPGKGLEWIGMIYGSGATYYASWAKGRFTISKTSSTTVDLKMTSLTTEDTATYFCARQIYSGDNNDNFWGPGTLVTVSS
VL: AYDMTQTPASVEVAVGGTVTINCQASESISNWLAWYQQKPGQRPKLLIYRASTLASGVSSRFKGSGSGTQFTLTISGVECDDAATYYCQQDYSSSNVDNTFGGGTKVVVE
B3: CFA0538 (antibody, V domains shown)
VH: B2 VH
VL: B2 VL with K106T
B4: CFA0307 (antibody, V domains shown)
VH: QSLEESGGGLVKPGASLTLTCKASGIDFSNFYYICWVRQAPGKGLDLIACIYTVSGYTYYASWAKGRLTISKTSSTTVTLQMTSLTAADTATYFCARDLHAGITNLWGPGTLVTVSS
VL: AIEMTQTPFSVSAAVGGTVTIKCQASQNIYSNLAWYQQKPGQRPKLLIYGASNLESGVPSRFKGSGSGTEYTLTISDLECADAATYYCLQGYSYSNVDDAFGGGTEVVVK
B5: CFA0666 (antibody, V domains shown)
VH: QSVEESGGRLVTPGTPLTLTCTVSGFSLSTYAMGWVRQAPGKGLEWIGTIDTGDNSFYANWAKGRFTISKTSTTVDLKITSPTAEDTATYFCARNDGSVYNLFNLWGPGTLVTVSS
VL: DVVMTQTPASVSAAVGGTVTIKCQASENIYSALSWYQQKPGLRPRLLIYYASTLASGVPSRFKGSRSGTEFTLTISDLECADAATYYCQQYYDINSVDNTFGGGTKVVVE
B6: CFA0675 (antibody, V domains shown)
VH: B5 VH with K70R
VL: B5 VL with T85S
B7: CFA0672 (antibody, V domains shown)
VH: QSVEESGGRLVTPGTPLTLTCTASGFSLSGNAINWVRQAPGKGLEWIGCIYTGSDTTYYATWAKGRFTISKTSTTVDLKIASPTTEDTATYFCARGSGLWGPGTLVTVSS
VL: DVVMTQTPASVSAPVGGTVTIKCQASQNIYSLLAWYQQKPGQPPKLLIYHTSDLASGVPSRFRGSGSGTEFTLTISDLECADAATYYCQCTAYGSSDVGGTFGGGTTVVVE
B8: CFA0599 (antibody, V domains shown)
VH: QSVEESGGRLVTPGTPLTLTCTVSGLSLSDNTMTWVRQAPGKGLEWIGIISFGGDAYYASWAKGRFPISKTSTTVDLRITSPTTEDTATYFCARVGAGNIFWYFDLWGPGTLVTVSS
VL: AYDMTQTPASVEVSVGGTVTIKCQASESIYSALAWYQQKPGQPPKLLIYSASTLASGVPSRFKGSGSGTEYTLTISDLECADAATYYCQQYYSSTNVHNSFGGGTTVVVE
B9: CFA0305 (antibody, V domains shown)
VH: QSLEESGGDLVKPGASLAVTCTASGFSSSSSYYMCWVRQAPGKGLEWIGCIYTGSGATYYASWAKGRFTISKTSSTTVTLQMTSLTVADTATYFCASDGGYVTPTHAMYLWGPGTLVTVSS
VL: DVVMTQTPASVSAAVGGTVTIKCQASQNIGSDLAWYQQKPGQPPRLLIYGASKLASGVSSRFSGSGSGKEFTLTISDLECADAVTYYCQCTFVGSSYGNAFGGGTEVVVK
B10: CFA0366 (antibody, V domains shown)
VH: QSLEESGGDLVKPGASLSLTCTAAGLDFSSSYYMCWVRQAPGKGLEWIACIYAGSSGIIYYANWAKGRFTISRPSSTTVTLQMTSLTAADTATYFCATYPTYGDGGHAFNLWGPGTLVTVSS
VL: AQVLTQTPSSVSAAVGGTVTINCQSSQSVYSSDYLSWYQQKPGQPPKLLIYEASKLASGVPPRFSGSGSGTQFTLTISGVQCDDAATYYCQGTYYSSGWYFAFGGGTEVVVK
B11: CFA0341 (antibody, V domains shown)
VH: QSVEESGGRLVTPGTPLTLTCTVSGIDLSSYTMGWVRQAPGKGLECIGYIHSFGSTYYASWAKGRFTISKTSTTVDLEITSPTTEDTATYFCARDVGGSSGWDLWGQGTLVTVSS
VL: DVVMTQTPSSVSAAVGGTVTIKCQASENIYSNLAWYQQKPGQPPKRLIYDASDLASGVPSRFSGSGYGTQFTLTISGVQCEDAATYYCQANYDSTSSSFGNVFGGGTEVVVK
B12: CFA0330 (antibody, V domains shown)
VH: QSLEESGGDLVEPGASLTLTCTASGFSWNSGYDMCWVRQAPGKGLEWIACIYTGSSANTAYANWAKGRFTISKTSSTTVTLQMTGLTAADTATYFCARHDDYFFDLWGPGTLVTVSS
VL: DVVMTQTPASVSESVGGTVTINCQASQSIGNNLAWYQQKPGQPPKLLIYDASNLASGVPSRFKGSRSGTEPTLTNTLTISGVQCADVATYYCQSGWYGNSYVAAFGGGTEVVVKR

The binders below were run against T2, recombinant human C5 (human, UniProt P01031 20-1676) (assay: SPR (BIACORE T200), ratio of kd of condition (2) and (1)).
T2 construct: The same entry is used here for C5 in normal human serum in the functional rows; also called hC5; rhC5

In the case of B1, the “pH dependency (ratio of dissociation rate at pH5.8 to that at pH7.4)” value is reported as 21.1.

Molecular target: T1, recombinant cynomolgus monkey C5
Assay: SPR (BIACORE T200), antibody captured by ProA/G, recombinant cynoC5 injected, 37 degrees C, pH7.4

Point of comparison: B9, koff 0.00067 s⁻¹. Against it:
- B2 — 2.3-fold higher, 0.00156 s⁻¹
- B3 — 2.5-fold higher, 0.00166 s⁻¹
- B4 — 3.3-fold higher, 0.00223 s⁻¹
- B5 — within 1.5-fold, 0.000493 s⁻¹
- B6 — 1.8-fold lower, 0.000378 s⁻¹
- B7 — 2.8-fold higher, 0.00185 s⁻¹
- B8 — 3.5-fold higher, 0.00235 s⁻¹
- B10 — 13-fold higher, 0.00904 s⁻¹

Point of comparison: B5, kon 314000 M⁻¹ s⁻¹. Against it:
- B2 — within 1.5-fold, 266000 M⁻¹ s⁻¹
- B3 — within 1.5-fold, 305000 M⁻¹ s⁻¹
- B4 — within 1.5-fold, 290000 M⁻¹ s⁻¹
- B6 — within 1.5-fold, 294000 M⁻¹ s⁻¹
- B7 — 2-fold higher, 641000 M⁻¹ s⁻¹
- B8 — 1.7-fold higher, 542000 M⁻¹ s⁻¹
- B9 — 26-fold lower, 12100 M⁻¹ s⁻¹
- B10 — 1.6-fold higher, 504000 M⁻¹ s⁻¹

What follows are binders tested against T2, recombinant human C5 (assay: SPR (BIACORE T200), antibody captured by ProA/G, recombinant human C5 injected, 37 degrees C, pH5.8; pH 5.8).

Point of comparison: B12, koff 0.000224 s⁻¹. Against it:
- B2 — 120-fold higher, 0.0262 s⁻¹
- B3 — 130-fold higher, 0.0301 s⁻¹
- B4 — 150-fold higher, 0.0334 s⁻¹
- B5 — 42-fold higher, 0.00939 s⁻¹
- B6 — 30-fold higher, 0.00661 s⁻¹
- B7 — 44-fold higher, 0.00978 s⁻¹
- B11 — 3-fold lower, 7.39e-05 s⁻¹
- B8 — 170-fold higher, 0.0373 s⁻¹
- B9 — 82-fold higher, 0.0183 s⁻¹
- B10 — 310-fold higher, 0.0703 s⁻¹

Point of comparison: B2, kon 150000 M⁻¹ s⁻¹. Against it:
- B3 — within 1.5-fold, 122000 M⁻¹ s⁻¹
- B4 — within 1.5-fold, 204000 M⁻¹ s⁻¹
- B5 — 1.9-fold higher, 282000 M⁻¹ s⁻¹
- B6 — 2.6-fold higher, 389000 M⁻¹ s⁻¹
- B7 — 2.1-fold lower, 71100 M⁻¹ s⁻¹
- B11 — 8.3-fold higher, 1.24e+06 M⁻¹ s⁻¹
- B8 — 3-fold higher, 454000 M⁻¹ s⁻¹
- B12 — 8.1-fold higher, 1.22e+06 M⁻¹ s⁻¹
- B9 — 3.5-fold lower, 42700 M⁻¹ s⁻¹
- B10 — 6.2-fold higher, 935000 M⁻¹ s⁻¹

These binders were tested against T2, recombinant human C5 (assay: SPR (BIACORE T200), antibody captured by ProA/G, recombinant human C5 injected, 37 degrees C, pH7.4; pH 7.4).

Point of comparison: B11, koff 9.77e-05 s⁻¹. Against it:
- B2 — 17-fold higher, 0.00169 s⁻¹
- B3 — 19-fold higher, 0.00185 s⁻¹
- B4 — 27-fold higher, 0.00263 s⁻¹
- B5 — 6.4-fold higher, 0.000626 s⁻¹
- B6 — 4.2-fold higher, 0.000412 s⁻¹
- B7 — 1.9-fold higher, 0.000183 s⁻¹
- B8 — 29-fold higher, 0.00281 s⁻¹
- B12 — 2.1-fold higher, 0.000202 s⁻¹
- B9 — 6-fold higher, 0.000589 s⁻¹
- B10 — 96-fold higher, 0.00934 s⁻¹

Point of comparison: B6, kon 383000 M⁻¹ s⁻¹. Against it:
- B2 — within 1.5-fold, 474000 M⁻¹ s⁻¹
- B3 — within 1.5-fold, 473000 M⁻¹ s⁻¹
- B4 — within 1.5-fold, 324000 M⁻¹ s⁻¹
- B5 — within 1.5-fold, 365000 M⁻¹ s⁻¹
- B7 — within 1.5-fold, 523000 M⁻¹ s⁻¹
- B11 — 1.6-fold higher, 628000 M⁻¹ s⁻¹
- B8 — within 1.5-fold, 474000 M⁻¹ s⁻¹
- B12 — 4.3-fold higher, 1.66e+06 M⁻¹ s⁻¹
- B9 — 10-fold lower, 38200 M⁻¹ s⁻¹
- B10 — 2.7-fold higher, 1.04e+06 M⁻¹ s⁻¹
